Data taken from patent US9255257B2, “PmST1 mutants for chemoenzymatic synthesis of sialyl lewis X compounds” (THE REGENTS OF THE UNIVERSITY OF CALIFORNIA, priority 2011, dated 2016).
Numbering of substitutions follows the chain as printed. Numbers in names are those of the source.

Tests used:
[1] = system: CC(=O)N[C@H]1[C@H](Oc2ccc3c(C)cc(=O)oc3c2)O[C@H](CO)[C@@H](O[C@@H]2O[C@H](CO)[C@H](O)[C@H](O)[C@H]2O)[C@@H]1O[C@@H]1O[C@@H](C)[C@@H](O)[C@@H](O)[C@@H]1O; assay: α2-3-sialyltransferase activity, Le^xβMU as acceptor; assay type: biochemical, Pasteurella multocida; details: other: apparent, acceptor, CMP-Neu5Ac 1 mM, CAPSO pH 9.5, 37° C.
Protocol: (§1) Site-directed mutagenesis, expression and purification of PmST1 mutants. Site-directed mutagenesis was performed using the QuikChange multi-site-directed mutagenesis kit from Stratagene according to the manufacturer's protocol. The primers used were 5′-[…]-3′ (SEQ ID NO:35) for M144D; 5′-[…]a[…] -3′ (SEQ ID NO:36) for M144H; 5′-[…]-3′ (SEQ ID NO:37) for A35D; and 5′-[…]-3′ (SEQ ID NO:38) for A35H. The expression and purification of the mutants were performed as previously described for the WT PmST1 .
(§2) Kinetics of the α2-3-sialyltransferase activity of PmST1 mutants by HPLC analysis. With LacβMU as the acceptor substrate, the reactions were performed in duplicate at 37° C. for 10 min (M144D) or 4 min (M144H) in a reaction mixture (10 μL) containing Tris-HCl (100 mM, pH 8.5), an enzyme (5 μg mL^−1), and different concentrations (0.2, 0.5, 1.0, 2.0, and 5.0 mM) of LacβMU with a fixed concentration (1 mM) of CMP-Neu5Ac or different concentrations (0.2, 0.5, 1.0, 2.0, 5.0, and 10.0 mM) of CMP-Neu5Ac with a fixed concentration (1 mM) of LacβMU. With Le^xβMU as the acceptor substrate, the reactions were carried out in duplicate at 37° C. for 9 min (M144D) or 10 min (M144H) in a reaction mixture (10 μL) containing CAPSO (100 mM, pH 9.5), an enzyme (M144D, 39 μg mL^−1 or M144H, 5 μg mL^−), and various concentrations of Le^xβMU (1.0, 5.0, 10.0, 15.0, 25.0, and 35.0 mM) with a fixed concentration (1 mM) of CMP-Neu5Ac or various concentrations (0.2, 0.5, 1.0, 2.0, 5.0, 10.0, 20.0, and 40.0 mM) of CMP-Neu5Ac with a fixed concentration (1 mM) of Le^xβMU. Reactions were stopped by adding 10 μL of pre-chilled ethanol. The mixtures were incubated on ice for 30 min and centrifuged at 13,000 rpm for 5 min. The supernatants were diluted with 25% acetonitrile and kept on ice until aliquots of 8 μL were injected and analyzed by the Shimadzu LC-6AD system equipped with a membrane on-line degasser, a temperature control unit, and a fluorescence detector (Shimadzu RF-10AXL). A reverse-phase Premier C18 column (250×4.6 mm i.d., 5 μm particle size, Shimadzu) protected with a C18 guard column cartridge was used. The mobile phase was 25% acetonitrile. The fluorophore (MU)-labeled compounds were detected by excitation at 325 nm and emission at 372 nm. The apparent kinetic parameters were obtained by fitting the experimental data (the average values of duplicate assay results) into the Michaelis-Menten equation using Grafit 5.0.

[2] = system: CC(=O)N[C@H]1[C@H]([C@H](O)[C@H](O)CO)O[C@](OP(=O)(O)OC[C@H]2O[C@@H](n3ccc(N)nc3=O)[C@H](O)[C@@H]2O)(C(=O)O)C[C@@H]1O; assay: as above; assay type: biochemical, Pasteurella multocida; details: other: apparent, donor, Le^xβMU 1 mM, CAPSO pH 9.5, 37° C.
Protocol: as §1, §2

[3] = system: Cc1cc(=O)oc2cc(O[C@@H]3O[C@H](CO)[C@@H](O[C@@H]4O[C@H](CO)[C@H](O)[C@H](O)[C@H]4O)[C@H](O)[C@H]3O)ccc12; assay: α2-3-sialyltransferase activity, LacβMU as acceptor; assay type: biochemical, Pasteurella multocida; details: other: apparent, acceptor, CMP-Neu5Ac 1 mM, Tris-HCl pH 8.5, 37° C.
Protocol: as §1, §2

[4] = system: CC(=O)N[C@H]1[C@H]([C@H](O)[C@H](O)CO)O[C@](OP(=O)(O)OC[C@H]2O[C@@H](n3ccc(N)nc3=O)[C@H](O)[C@@H]2O)(C(=O)O)C[C@@H]1O; assay: as above; assay type: biochemical, Pasteurella multocida; details: other: apparent, donor, LacβMU 1 mM, Tris-HCl pH 8.5, 37° C.
Protocol: as §1, §2

[5] = system: CC(=O)N[C@H]1[C@H]([C@H](O)[C@H](O)CO)O[C@@](O[C@H]2[C@@H](O)[C@@H](CO)O[C@@H](O[C@H]3[C@H](O)[C@@H](O)[C@H](Oc4ccc5c(C)cc(=O)oc5c4)O[C@@H]3CO)[C@@H]2O)(C(=O)O)C[C@@H]1O; assay: α2-3-sialidase activity, Neu5Acα2-3LacβMU as substrate; assay type: biochemical, Pasteurella multocida; details: other: apparent, MES pH 5.5, 37° C.
Protocol: as §1
Kinetics of the α2-3-sialidase activity of PmST1 mutants. The reactions were performed in duplicate in a total volume of 10 μL at 37° C. for 60 min (M144D) or 15 min (M144H) in MES buffer (100 mM, pH 5.5) containing Neu5Acα2-3LacβMU (0.4, 1, 2, 4, 10, 20, 40 and 60 mM) and an enzyme (M144H, 1.36 mg mL^−1 or M144D, 1.05 mg mL^−1). Sample treatment after the reaction and analysis were carried out by HPLC similar to that described above for the α2-3-sialyltransferase assays.

[6] = system: CC(=O)N[C@H]1[C@H]([C@H](O)[C@H](O)CO)O[C@](OP(=O)(O)OC[C@H]2O[C@@H](n3ccc(N)nc3=O)[C@H](O)[C@@H]2O)(C(=O)O)C[C@@H]1O; assay: CMP-Neu5Ac (donor) hydrolysis activity, capillary electrophoresis; assay type: biochemical, Pasteurella multocida; details: other: apparent, Tris-HCl pH 8.5, 37° C., 15 min
Protocol: as §1
Kinetics of the donor hydrolysis activity of PmST1 and mutants by capillary electrophoresis analysis. […] The reactions were stopped by adding 10 μL of pre-chilled ethanol. The mixtures were incubated on ice for 30 min and centrifuged at 13,000 rpm for 5 min. The supernatants were diluted with borate buffer (25 mM, pH 9.5) and aliquotes of 5 μL each were injected to a Beckman Coulter P/ACE™ MDQ Capillary Electrophoresis system equipped with a capillary (60 cm×75 μm i.d.) and monitored at 254 nm. The apparent kinetic parameters were obtained by fitting the experimental data (the average values of duplicate assay results) into the Michaelis-Menten equation using Grafit 5.0.

[7] = Thermal stability studies by HPLC; assay type: physicochemical; details: incubating at 37° C. for up to 2 hours
Protocol: Stability studies by HPLC. Thermal stability studies were carried out by incubating wild-type PmST1 or E271F/R313Y mutant solution (20 μg mL^−1) at 37° C. Samples were withdrawn at various time intervals for enzyme activity assays.

[8] = Apparent kinetics of the α2-3-sialidase activity (HPLC, fluorescent sialoside substrate); assay type: biochemical; details: substrate Neu5Acα2-3LacβMU
Protocol: All the sialidase and α2-3-sialyltransferase assays were performed in an HPLC system. Reactions were stopped by adding 10 μL of ethanol. […] The mobile phase was 25% acetonitrile.
Kinetics of the α2-3-sialidase activity of PmST1 mutants.

[9] = HPLC time course of PmST1-catalyzed α2-3-sialylation of Le^xβMU; assay type: biochemical; details: Le^xβMU 1 mM, one equivalent of CMP-Neu5Ac
Source text: Numbers in parentheses represent the % consumption of CMP-Neu5Ac by capillary electrophoresis (CE) assays.
In fact, donor hydrolysis has been observed in other glycosyltransferase-catalyzed reactions that lead to lower synthetic yields. […] Two recent papers discussed the donor hydrolysis activities of human blood group A and B glycosyltransferases (GTA and GTB) which are Mn^2+-dependent and the UDP-Gal hydrolysis activity of GTB is increased in the presence of an acceptor substrate analog. Nevertheless, the effect of donor hydrolysis of glycosyltransferases on glycosylation processes has not been investigated in detail. In addition, no strategy has been reported for improving the yields of glycosyltransferase-catalyzed reactions by decreasing donor hydrolysis activity.

[10] = α2-3-sialidase activity assay with sialyl Le^x substrate (HPLC); assay type: biochemical; details: substrate 1 mM, enzyme 4 mg mL^−1, MES pH 5.5, 37° C.
Protocol: The α2-3-sialidase activity assays of PmST1 and mutants. The reactions were carried out in duplicate in a total volume of 10 μL at 37° C. for 20 hr in MES buffer (100 mM, pH 5.5) containing Neu5Acα2-3Le^xβMU (1 mM) and an enzyme (4 mg mL^−1). Aliquots of 1 μL were withdrawn at 1 hr, 6 hr and 20 hr, and analyzed by HPLC as described above for the α2-3-sialyltransferase assays.

Pasteurella multocida PmST1 mutant M144D of SEQ ID NO: 13 (M120D of Δ24PmST1, SEQ ID NO: 3) (Pasteurella multocida; M144D)
Km ([1]; M144D): 13 ± 2 mM | Km ([2]; M144D): 2.1 ± 0.1 mM | Km ([3]; M144D): 12 ± 1 mM | Km ([4]; M144D): 0.30 ± 0.05 mM | Km ([5]; M144D, 60 min): 20 ± 2 mM | Km ([6]; M144D): 7.3 ± 0.5 mM

Pasteurella multocida PmST1 mutant M144H of SEQ ID NO: 13 (M120H of Δ24PmST1, SEQ ID NO: 5) (Pasteurella multocida; M144H)
Km ([1]; M144H): 8.1 ± 0.9 mM | Km ([2]; M144H): 0.4 ± 0.05 mM | Km ([3]; M144H): 0.79 ± 0.04 mM | Km ([4]; M144H): 0.81 ± 0.06 mM | Km ([5]; M144H, 15 min): 1.7 ± 0.3 mM | Km ([6]; M144H): 13 ± 3 mM

B1: E271F/R313Y (protein, listed as Pasteurella multocida)
chain: MKNRRLNFKLFFLIIFSLFSTLSWSKTITLYLDPASLPALNQLMDFTQNNEDKTHPRIFGLSRFKIPDNIITQYQNIHFVELKDNRPTEALFTILDQYPGNIELNIHLNIAHSVQLIRPILAYRFKHLDRVSIQQLNLYDDGSMEYVDLEKEENKDISAEIKQAEKQLSHYLLTGKIKFDNPTIARYVWQSAFPVKYHFLSTDYFEKAEFLQPLKEYLAENYQKMDWTAYQQLTPEQQAFYLTLVGFNDEVKQSLEVQQAKFIFTGTTTWFGNTDVREYYAQQQLNLLNHFTQAEGDLFIGDHYKIYFKGHPYGGEINDYILNNAKNITNIPANISFEVLMMTGLLPDKVGGVASSLYFSLPKEKISHIIFTSNKQVKSKEDALNNPYVKVMRRLGIIDESQVIFWDSLKQL
modifications: PmST1 wild-type glycosyltransferase family 80 (GT80), GT80 sialyltransferase, Pm0188Ph
thermal stability of α2-3-sialyltransferase activity (FIG. 3, in words) [7]: did not decrease their activities significantly | decrease in sialidase kcat (turnover number) compared to wild-type PmST1 [8]: 277 fold | decrease of α2-3-sialidase activity (catalytic efficiency kcat/Km) compared to wild-type PmST1 [8]: 6,333 fold | increase in sialidase Km value compared to wild-type PmST1 [8]: 22.5 fold

B2: WT: multifunctional α2-3-sialyltransferase from Pasteurella multocida (PmST1), wild type sequence SEQ ID NO: 13; control enzyme (protein, listed as Pasteurella multocida)
chain: B1 chain with F271E, Y313R
modifications: PmST1 wild-type glycosyltransferase family 80 (GT80), GT80 sialyltransferase, Pm0188Ph
notes: control enzyme
time to reach yield plateau [9]: ≤ 2 min | yield plateau of sialylation of Le^xβMU [9]: 1.1-1.3% | thermal stability of α2-3-sialyltransferase activity (FIG. 3, in words) [7]: did not decrease their activities significantly | Neu5Ac cleaved from Neu5Acα2-3Le^xβMU ([10]; 1 h): 2.0% | Neu5Ac cleaved from Neu5Acα2-3Le^xβMU ([10]; 6 h): 7.0% | Neu5Ac cleaved from Neu5Acα2-3Le^xβMU ([10]; 20 h): 7.5%
